Substrate in the series: O=[N+]([O-])c1ccc(O[C@H]2O[C@H](CO)[C@@H](O[C@H]3O[C@H](CO)[C@@H](O[C@H]4O[C@H](CO)[C@@H](O)[C@H](O)[C@H]4O)[C@H](O)[C@H]3O)[C@H](O)[C@H]2O)c(Cl)c1
Briefly: purified protein. It is filed as biochemical, Panulirus argus. The following applies: 50 mM MES pH 5.5, 0.3 M NaCl, 25 mM CaCl2, 37°C.

B1: lobster α-amylase (PaAmy) (Panulirus argus) (protein)
chain: QWDPHVTNGQAIVHLFEWRWSDIASECENFLGPRGYGGVQVSPPNENVVVYQDEKSRPWWERYQPVSYKIATRSGDEASFKDMVNRCNNAGVRIYVDAVINHMSGWWPTGTAATGGSTFDAGAESYPAVPYSAFDFNDANCHTASGTIEDYGDAEQVRNCKLVGLNDLNQGTDYVRGKIRDYLNTLTSWGVAGFRVDATKHMWPGDLKAIFDSLDDLSPHYFDAGSRPFIFQEVIDLGGEPITSSQYVGNGRVTEFKYGKSLGESFNGNNPLKWFSTFGESWGMVDRGNAVVFIDNHDNQRTGGDMILTFRSSKWYKMANAYMLAWPYGFPRVMSSFYWDQWWENGHDKNDWTGPPHDGSYNIVGPTFNPDDSCGNGWICEHRWRQIYNMVQFRNVAHGTDMNDWWDNGSNQISFCRGDRGFIAINNDPWDMKESRQTCLSSGTYCDVISGSKIQGSCTGKTVTVNADGFAYIEILNSEEDGVLAIHRDSKL
notes: native, purified from digestive gland pool; mature enzyme after 21-residue signal peptide (cleavage A21/Q22 predicted); precursor 513 residues; N-glycosylation N429 predicted
For B1, the Km – broadly, the substrate concentration at which the rate is half of its maximum – was found to be 360 ± 52 µM; the catalytic constant (kcat) (as a rule, the number of substrate molecules converted per active site and unit of time at saturation) turned out to be 28.42 ± 1.203 s⁻¹.

These data come from publication PMC4938498, “Molecular, Biochemical, and Dietary Regulation Features of α-Amylase in a Carnivorous Crustacean, the Spiny Lobster Panulirus argus” (PLoS ONE, 2016).
